Target: soluble human myeloproliferative leukemia (MPL) receptor (human) (UniProt P40238)
Assay: BIAcore competition: test protein preincubated with 5 nM MPL receptor, passed over Fc-TMP on protein G chip
Design: unit not given here

Sequence of UniProt P40238 (P40238 26-491 limits assumed): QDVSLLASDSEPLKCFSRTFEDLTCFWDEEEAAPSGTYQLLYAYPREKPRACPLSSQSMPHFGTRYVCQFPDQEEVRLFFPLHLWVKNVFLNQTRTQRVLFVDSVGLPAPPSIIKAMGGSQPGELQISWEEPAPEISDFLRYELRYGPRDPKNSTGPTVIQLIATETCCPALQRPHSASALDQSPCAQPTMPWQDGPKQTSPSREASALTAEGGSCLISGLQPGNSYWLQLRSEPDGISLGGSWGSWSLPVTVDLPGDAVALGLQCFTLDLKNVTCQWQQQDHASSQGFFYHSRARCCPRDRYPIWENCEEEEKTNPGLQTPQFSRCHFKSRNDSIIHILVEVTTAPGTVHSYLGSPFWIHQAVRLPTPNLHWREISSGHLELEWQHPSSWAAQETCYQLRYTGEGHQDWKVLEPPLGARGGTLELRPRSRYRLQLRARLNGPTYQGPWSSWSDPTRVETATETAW

affinity: 3.28 to 5.37
Substance: TMP sequence fused to the carboxy-terminus of human immunoglobulin Fc (Fc-TMP) (Fc fusion)

From patent US20030195154A1
